Measured values as given in patent US20190127468A1.
Where “and” joins values, the source holds several entries; their conditions need not be identical. Equal entries are not always repeated.

How the values were obtained:
[1] = biological target: mouse CTLA4-Fc fusion protein (mouse) (UniProt P09793); assay: blocking ELISA: plate B7-1, biotinylated mouse CTLA4-Fc with the antibody, HRP-streptavidin; blocked ligand B7-1
[2] = biological target: human CTLA4 in cells of Ctla4 h/h knock-in mice (human) (UniProt P16410); assay: flow cytometry, intracellular staining of CTLA4 in spleen cells of Ctla4 h/h mice, gated on CD3+CD4+
[3] = biological target: mouse CTLA4-Fc fusion protein (mouse) (UniProt P09793); assay: blocking ELISA: plate B7-2, biotinylated mouse CTLA4-Fc with the antibody, HRP-streptavidin; blocked ligand B7-2
[4] = biological target: mouse CTLA4 in cells of Ctla4 m/m (WT) mice (mouse) (UniProt P09793); assay: flow cytometry, intracellular staining of CTLA4 in spleen cells of Ctla4 m/m mice, gated on CD3+CD4+
[5] = biological target: mouse CTLA4 in cells of Ctla4 m/m (WT) mice (mouse) (UniProt P09793); assay: cell-based or functional assay
[6] = biological target: Control IgG1-Fc (human) [IgG part: P01857]; assay: ELISA on coated target; binder 1000 ng/ml
[7] = biological target: Control IgG1-Fc (human) [IgG part: P01857]; assay: ELISA on coated target; binder 0 (background)
[8] = biological target: Control IgG1-Fc (human) [IgG part: P01857]; assay: ELISA on coated target; binder 100 ng/ml
[9] = biological target: Control IgG1-Fc (human) [IgG part: P01857]; assay: ELISA on coated target; binder 10 ng/ml
[10] = biological target: CTLA-4Fc mutant M11 (AA103-106, YLGI>fcGm) (human); assay: ELISA, plate-coated CTLA-4Fc protein, biotinylated B7-1 Ig at 10 ng/ml, HRP-streptavidin
[11] = biological target: CTLA-4Fc mutant M11 (AA103-106, YLGI>fcGm) (human); assay: ELISA, plate-coated CTLA-4Fc protein, biotinylated B7-1 Ig at 100 ng/ml, HRP-streptavidin
[12] = biological target: CTLA-4Fc mutant M11 (AA103-106, YLGI>fcGm) (human); assay: ELISA, plate-coated CTLA-4Fc protein, biotinylated B7-1 Ig at 1 ug/ml, HRP-streptavidin
[13] = biological target: CTLA-4Fc mutant M11 (AA103-106, YLGI>fcGm) (human); assay: ELISA, plate-coated CTLA-4Fc protein, biotinylated B7-1 Ig at 0 (blank), HRP-streptavidin

Sequence of CTLA-4Fc mutant M11 (AA103-106, YLGI>fcGm) (human) (chain, as listed by the source mutant limits assumed): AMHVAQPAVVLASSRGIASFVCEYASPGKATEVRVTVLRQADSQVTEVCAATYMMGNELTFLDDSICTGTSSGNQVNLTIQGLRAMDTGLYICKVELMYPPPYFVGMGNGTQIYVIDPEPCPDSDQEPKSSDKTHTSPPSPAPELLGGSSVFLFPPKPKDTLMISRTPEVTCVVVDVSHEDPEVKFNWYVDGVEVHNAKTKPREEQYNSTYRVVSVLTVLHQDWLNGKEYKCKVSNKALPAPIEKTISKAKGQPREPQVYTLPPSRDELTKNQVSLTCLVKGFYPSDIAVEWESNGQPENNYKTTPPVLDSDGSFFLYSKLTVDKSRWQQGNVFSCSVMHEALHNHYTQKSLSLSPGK
Sequence of anti-mouse CTLA4 mAb 9D9 (antibody) (light): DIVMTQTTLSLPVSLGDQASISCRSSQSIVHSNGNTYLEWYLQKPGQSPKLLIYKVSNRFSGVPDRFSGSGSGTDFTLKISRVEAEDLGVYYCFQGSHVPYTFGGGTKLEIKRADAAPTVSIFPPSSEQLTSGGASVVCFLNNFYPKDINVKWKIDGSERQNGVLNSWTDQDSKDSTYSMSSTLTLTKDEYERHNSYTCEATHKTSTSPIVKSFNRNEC
Sequence of anti-mouse CTLA4 mAb 9D9 (antibody) (heavy): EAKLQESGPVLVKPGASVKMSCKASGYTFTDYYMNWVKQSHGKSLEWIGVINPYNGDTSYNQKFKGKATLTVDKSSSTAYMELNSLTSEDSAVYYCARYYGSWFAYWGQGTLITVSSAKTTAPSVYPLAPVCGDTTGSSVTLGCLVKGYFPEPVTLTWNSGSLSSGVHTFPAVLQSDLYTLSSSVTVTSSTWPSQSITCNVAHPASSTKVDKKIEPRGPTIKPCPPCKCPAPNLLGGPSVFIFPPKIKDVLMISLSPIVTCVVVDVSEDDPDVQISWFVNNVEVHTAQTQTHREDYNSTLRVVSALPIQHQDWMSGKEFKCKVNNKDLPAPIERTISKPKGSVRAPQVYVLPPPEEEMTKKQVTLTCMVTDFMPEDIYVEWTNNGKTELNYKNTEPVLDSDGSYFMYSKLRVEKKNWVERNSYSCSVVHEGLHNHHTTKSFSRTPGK
Sequence of human CTLA4 in cells of Ctla4 h/h knock-in mice (human) (P16410 36-223): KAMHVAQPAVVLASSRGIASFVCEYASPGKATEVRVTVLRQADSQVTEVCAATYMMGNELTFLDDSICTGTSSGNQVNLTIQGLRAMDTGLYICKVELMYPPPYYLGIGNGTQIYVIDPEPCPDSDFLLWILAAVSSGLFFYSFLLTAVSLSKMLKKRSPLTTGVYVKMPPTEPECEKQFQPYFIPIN

anti-mouse CTLA4 mAb 4F10 (antibody) gave an IC50 (read off the curve) [1] of 1 µg/mL, a number over the gate (FoxP3-positive, 4F10-stained) among CD3+CD4+ splenocytes [2] of 0.107 and an IC50 (read off the curve) [3] of 0.3 µg/mL. For the same substance, the number over the gate (FoxP3-positive, 4F10-stained) among CD3+CD4+ splenocytes [4] was 9.52.

In the case of anti-mouse CTLA4 mAb 9D9 (antibody), the B7-1 level on CD11c hi DC of WT mice 24 h after 500 µg antibody [5] is reported as 15%.

chimeric L3D10 antibody was tested, and the OD450 [6] was 1.39 OD and 1.48 OD, the OD450 [7] was 0.198 OD and 0.184 OD and the OD450 [8] was 0.315 OD and 0.326 OD. The OD450 [9] was 0.201 OD and 0.182 OD.

“human B7-1 Fc fusion protein (from UniProt P33681 35-242)” was tested, and the OD450 [10] was 0.22 OD450 and 0.217 OD450, the OD450 [11] was 0.884 OD450 and 1.04 OD450 and the OD450 [12] was 3.05 OD450 and 3.16 OD450. For the same substance, the OD450 [13] was 0.174 OD450 and 0.163 OD450.
